{"source": "paper doi:10.1101/2022.06.29.498105", "about": "(bioRxiv, 2022)", "proteins": {"B1": {"name": "TRIM21 RING domain (domain or fragment)", "chain": "GSHMASAARLTMMWEEVTCPICLDPFVEPVSIECGHSFCQECISQVGKGGGSVCPVCRQRFLLKNLRPNRQLANMVNNLKEISQEARE"}}, "biological_target": "the molecule itself", "assay": "crystal structure"}
{"protein": "B1", "values": [{"measurement": "stoichiometry N", "result": 2}]}
